How the values were obtained:
Format in all cases: cell-based, Rat
[1] = tested on: H9C2 cells; experiment: Mitochondrial viability assay, H9C2 cells exposed to hypoxia/reoxygenation (H/R) injury; conditions: 300, 100, 30, 3 nM (FIG. 7A/7B)
Procedure: (§1) H9C2 cell lines were cultured in Dulbecco's Modified Eagle Medium (DMEM) containing 10% FBS and 1% penicillin/streptomycin at humidified atmosphere containing 5% CO2 at 37° C.
(§2) In the cell viability assay or mitochondrial viability assay, exponentially growing cells of H9C2 cell line were plated in 96-well microplate at a density of 5000 cells per well in 100 μL of culture medium and allowed to adhere for 24 h before treatment. […] Subsequently, for cell viability assay, 150 μL dimethyl sulfoxide (DMSO) were added and the optical densities of the resulting solutions were calorimetrically determined at 570 nm using a SpectraMax Paradigm multi-mode microplate reader (Molecular Devices, Sunnyvale, Calif., U.S.A). For mitochondrial viability assay, fluorescence detected at 550 nm excitation and 590 nm emission using SpectraMax Paradigm multi-mode microplate reader. Dose-response curves were obtained and calculated by GraphPad Prism 6 (GraphPad, La Jolla, Calif., USA). Each experiment was carried out for three times and expressed as means±standard deviation.

[2] = tested on: H9C2 cell cytoskeleton; experiment: Cytoskeleton imaging (Rhodamine Phalloidin/DAPI, confocal) of H9C2 cells after H/R injury; conditions: 900, 300, 100, 30, 10, 3, 0.3 nM, FIG. 8A/8B
Procedure: H9C2 cells were plated in p-slide 8 well plate (Ibidi GmbH, Germany) at a density of 10000 cells per well in 200 μL of culture medium and allowed to adhere for 24 h before treatment. Hypoxic treatment was achieved by exposing cells in glucose-free DMEM under conditions of 94.9% N2/5% CO2/0.1% O2 for 12 hr at a hypoxystation (whitley H35 hypoxystation, Don Whitley Scientific Ltd., England), serial concentrations of RNA molecules obtained in Example 2 were then added to the cells and reoxygenation by incubating in the normoxic condition (95% air/5% CO2) at 37° C. for 6 hr. After hypoxia/reoxygenation, cells were stained with Rhodamine Phalloidin and DAPI following the manufacturer's instruction. Images were acquired on a Leica TCS SP8 Confocal Microscopy with a 20× objective.

[3] = tested on: H9C2 cells; experiment: MTT cell viability assay, H9C2 cells exposed to hypoxia/reoxygenation (H/R) injury; conditions: for cell viability (growth and proliferation of cardiomyocytes) under hypoxia/reoxygenation: 50 nM RNA, vs H/R group, FIG. 3B; for cardioprotective effect (cell viability), concentration series: 100, 50, 25, 12.5 nM, FIG. 4A/4B
Procedure: as §1
In the cell viability assay or mitochondrial viability assay, exponentially growing cells of H9C2 cell line were plated in 96-well microplate at a density of 5000 cells per well in 100 μL of culture medium and allowed to adhere for 24 h before treatment. For hypoxia, hypoxic treatment was achieved by exposing cells to KRB buffer (composition in: NaCl 115 mM, KCl 4.7 mM, CaCl2 2.5 mM, KH2PO4 1.2 mM, MgSO4 1.2 mM, NaHCO3 24 mM, HEPES 10 mM; pH 7.4) at 37° C. for 3 hr in an oxygen-free hypoxic chamber (Stem Cell Technologies, United States), serial concentrations of RNA molecules obtained in Example 1 were then added to the cells […]. For hypoxia/reoxygenation (H/R), Hypoxic treatment was achieved by exposing cells in glucose-free DMEM under conditions of 94.9% N2/5% CO2/0.1% O2 for 12 hr at a hypoxystation (whitley H35 hypoxystation, Don Whitley Scientific Ltd., England), serial concentrations of RNA molecules obtained in Example 1 and 2 were then added to the cells and reoxygenation by incubating in the normoxic condition (95% air/5% CO2) at 37° C. for 6 hr. After hypoxia or hypoxia/reoxygenation, MTT solution (100 μL per well, 0.5 mg/mL solution) or mitochondrial viability stain solution (follow the manufacture's instruction) was added to each well and incubated for 4 h at 37° C. Subsequently, for cell viability assay, 150 μL dimethyl sulfoxide (DMSO) were added and the optical densities of the resulting solutions were calorimetrically determined at 570 nm using a SpectraMax Paradigm multi-mode microplate reader (Molecular Devices, Sunnyvale, Calif., U.S.A). For mitochondrial viability assay, fluorescence detected at 550 nm excitation and 590 nm emission using SpectraMax Paradigm multi-mode microplate reader. Dose-response curves were obtained and calculated by GraphPad Prism 6 (GraphPad, La Jolla, Calif., USA). Each experiment was carried out for three times and expressed as means±standard deviation.

[4] = tested on: H9C2 cells; experiment: MTT cell viability assay, H9C2 cells under H/R injury, RNA transfected with DharmaFECT4; conditions: 300, 100, 30 nM, vs H/R+DharmaFECT4 group, FIG. 11A/11B
Procedure: FIG. 11A is a bar chart showing the cell viability of H9C2 cells exposed to hypoxia/reoxygenation (H/R) injury after treatment with RNA molecule HC50 at different concentrations, i.e. 300 nM, 100 nM and 30 nM, by transfected with DharmaFECT4 transfection reagent, compared to a control group, a H/R along with DharmaFECT4 treated group in accordance with an example embodiment (mean±SD n=3; **, p<0.01, vs. vehicle H/R+ DharmaFECT4; ####, p<0.0001 vs. vehicle control). […]
as §2

[5] = tested on: H9C2 cell line; experiment: MTT cell viability assay, H9C2 cells exposed to hypoxia injury; conditions: 300 nM RNA, H9C2, hypoxia 3 hr, vs hypoxia group, FIG. 3A

Molecule | cell viability (growth and proliferation of cardiomyocytes) under hypoxia [5] | cell viability (growth and proliferation of cardiomyocytes) under hypoxia/reoxygenation ([3]; H9C2, H/R) | cardioprotective effect (cell viability), concentration series ([3]; H9C2, H/R) | also measured
HC50: double-stranded RNA, sense SEQ ID NO: 2 and antisense SEQ ID NO: 234, 19 base pairs (sense GCGGAUGUAGCCAAGUGGA; antisense UCCACUUGGCUACAUCCGC; cholesterol-conjugated double-stranded RNA, conjugate position not given here) | – | – | – | mitochondrial viability, protective effect against H/R injury, concentration series [1]: dose-dependent protective effect against hypoxia/reoxygenation (H/R) injury; protective effect on cytoskeleton destruction [2]: significantly relieve cytoskeleton destruction of H9C2 cells caused by hypoxia/reoxygenation (H/R) injury in a dose-dependent manner; cell viability (growth and proliferation of cardiomyocytes), screen of synthesized RNA molecules ([3]; 300 nM, H9C2, H/R, FIG. 5A/5B): effective in promoting the growth and proliferation of cardiomyocytes; cell viability, protective effect against H/R injury, concentration series ([3]; 900, 300, 30, 3, 0.3 nM, H9C2, FIG. 6A/6B): dose-dependent protective effect against hypoxia/reoxygenation (H/R) injury; cell viability (growth and proliferation of cardiomyocytes), transfected with DharmaFECT4 [4]: promoted the growth and proliferation of cardiomyocytes against hypoxia/reoxygenation (H/R) injury in a dose-dependent manner
GCGGAUAUAGUCGAAUGGUAAAAUUUCUCUUUGCCAAGGAGAAGACGCGGGUUCGAUUCCCGCUAUCCGCCCCA (nucleic acid, expressed or natural sequence, tRNA isolated from Panax ginseng C; A. Mey; 74 mer) GCGGAUAUAGUCGAAUGGUAAAAUUUCUCUUUGCCAAGGAGAAGACGCGGGUUCGAUUCCCGCUAUCCGCCCCA | capable to promote the growth and proliferation of cardiomyocytes | capable to promote the growth and proliferation of cardiomyocytes | significant cardioprotective effects in a dose-dependent manner | –
CGCGGAGUAGAGCAGUUUGGUAGCUCGCAAGGCUCAUAACCUUGAGGUCACGGGUUCAAAUCCUGUCUCCGCAACCA (nucleic acid, expressed or natural sequence, tRNA isolated from Panax ginseng C; A. Mey; 77 mer) CGCGGAGUAGAGCAGUUUGGUAGCUCGCAAGGCUCAUAACCUUGAGGUCACGGGUUCAAAUCCUGUCUCCGCAACCA | capable to promote the growth and proliferation of cardiomyocytes | – | – | –
GCGGAUGUAGCCAAGUGGAUCAAGGCAGUGGAUUGUGAAUCCACCAUGCGCGGGUUCAAUUCCCGUCGUUCGCCCCA (nucleic acid, expressed or natural sequence, tRNA isolated from Panax ginseng C; A. Mey; 77 mer) GCGGAUGUAGCCAAGUGGAUCAAGGCAGUGGAUUGUGAAUCCACCAUGCGCGGGUUCAAUUCCCGUCGUUCGCCCCA | – | capable to promote the growth and proliferation of cardiomyocytes | significant cardioprotective effects in a dose-dependent manner | –
